Reference: patent publication US20120122239A1

How the values were obtained:
[1] = target: glycosylated human proBNP (HyTest, Turku, Finland; Catalog No. 8GOB2) (human); assay: sandwich CMIA, capture 15C4, analyte 288.7 pM
[2] = target: human NT-pro B-type natriuretic peptide (HyTest, Turku, Finland; Catalog No. 8NT1) (human); assay: sandwich CMIA, capture 15C4, analyte 288.7 pM
[3] = target: human pro B-type natriuretic peptide (HyTest, Turku, Finland; Catalog No. 8PRO8) (human); assay: sandwich CMIA, capture 15C4, analyte 288.7 pM
[4] = target: glycosylated human proBNP (HyTest, Turku, Finland; Catalog No. 8GOB2) (human); assay: sandwich CMIA, capture 15C4, analyte 577.4 pM
[5] = target: human NT-pro B-type natriuretic peptide (HyTest, Turku, Finland; Catalog No. 8NT1) (human); assay: sandwich CMIA, capture 15C4, analyte 577.4 pM
[6] = target: human pro B-type natriuretic peptide (HyTest, Turku, Finland; Catalog No. 8PRO8) (human); assay: sandwich CMIA, capture 15C4, analyte 577.4 pM
[7] = target: human pro B-type natriuretic peptide (HyTest, Turku, Finland; Catalog No. 8PRO8) (human); assay: sandwich CMIA, 15C4 (63-71) with 13G12 (13-20), against human NT-proBNP
[8] = target: glycosylated human proBNP (HyTest, Turku, Finland; Catalog No. 8GOB2) (human); assay: sandwich CMIA, capture 15C4, 577.4 pM, against human NT-proBNP
[9] = target: human pro B-type natriuretic peptide (HyTest, Turku, Finland; Catalog No. 8PRO8) (human); assay: as above
[10] = target: glycosylated human proBNP (HyTest, Turku, Finland; Catalog No. 8GOB2) (human); assay: sandwich CMIA, capture 15F11, analyte 0.0 pM (blank)
[11] = target: human NT-pro B-type natriuretic peptide (HyTest, Turku, Finland; Catalog No. 8NT1) (human); assay: as above
[12] = target: human pro B-type natriuretic peptide (HyTest, Turku, Finland; Catalog No. 8PRO8) (human); assay: as above
[13] = target: glycosylated human proBNP (HyTest, Turku, Finland; Catalog No. 8GOB2) (human); assay: sandwich CMIA, capture 15F11, analyte 43.3 pM
[14] = target: human NT-pro B-type natriuretic peptide (HyTest, Turku, Finland; Catalog No. 8NT1) (human); assay: sandwich CMIA, capture 15F11, analyte 43.3 pM
[15] = target: human pro B-type natriuretic peptide (HyTest, Turku, Finland; Catalog No. 8PRO8) (human); assay: sandwich CMIA, capture 15F11, analyte 43.3 pM
[16] = target: glycosylated human proBNP (HyTest, Turku, Finland; Catalog No. 8GOB2) (human); assay: sandwich CMIA, capture 15F11, analyte 288.7 pM
[17] = target: human NT-pro B-type natriuretic peptide (HyTest, Turku, Finland; Catalog No. 8NT1) (human); assay: sandwich CMIA, capture 15F11, analyte 288.7 pM
[18] = target: human pro B-type natriuretic peptide (HyTest, Turku, Finland; Catalog No. 8PRO8) (human); assay: sandwich CMIA, capture 15F11, analyte 288.7 pM
[19] = target: glycosylated human proBNP (HyTest, Turku, Finland; Catalog No. 8GOB2) (human); assay: sandwich CMIA, capture 15C4, analyte 0.0 pM (blank)
[20] = target: human NT-pro B-type natriuretic peptide (HyTest, Turku, Finland; Catalog No. 8NT1) (human); assay: as above
[21] = target: human pro B-type natriuretic peptide (HyTest, Turku, Finland; Catalog No. 8PRO8) (human); assay: as above
[22] = target: glycosylated human proBNP (HyTest, Turku, Finland; Catalog No. 8GOB2) (human); assay: sandwich CMIA, capture 15F11, analyte 577.4 pM
[23] = target: human NT-pro B-type natriuretic peptide (HyTest, Turku, Finland; Catalog No. 8NT1) (human); assay: sandwich CMIA, capture 15F11, analyte 577.4 pM
[24] = target: human pro B-type natriuretic peptide (HyTest, Turku, Finland; Catalog No. 8PRO8) (human); assay: sandwich CMIA, capture 15F11, analyte 577.4 pM
[25] = target: glycosylated human proBNP (HyTest, Turku, Finland; Catalog No. 8GOB2) (human); assay: sandwich CMIA, capture 15C4, 43.3 pM, against human NT-proBNP
[26] = target: human pro B-type natriuretic peptide (HyTest, Turku, Finland; Catalog No. 8PRO8) (human); assay: as above
[27] = target: glycosylated human proBNP (HyTest, Turku, Finland; Catalog No. 8GOB2) (human); assay: sandwich CMIA, capture 15C4, 288.7 pM, against human NT-proBNP
[28] = target: human pro B-type natriuretic peptide (HyTest, Turku, Finland; Catalog No. 8PRO8) (human); assay: as above
[29] = target: glycosylated human proBNP (HyTest, Turku, Finland; Catalog No. 8GOB2) (human); assay: sandwich CMIA, capture 15F11, analyte 86.6 pM
[30] = target: human NT-pro B-type natriuretic peptide (HyTest, Turku, Finland; Catalog No. 8NT1) (human); assay: sandwich CMIA, capture 15F11, analyte 86.6 pM
[31] = target: human pro B-type natriuretic peptide (HyTest, Turku, Finland; Catalog No. 8PRO8) (human); assay: sandwich CMIA, capture 15F11, analyte 86.6 pM
[32] = target: glycosylated human proBNP (HyTest, Turku, Finland; Catalog No. 8GOB2) (human); assay: sandwich CMIA, capture 15C4, analyte 43.3 pM
[33] = target: human NT-pro B-type natriuretic peptide (HyTest, Turku, Finland; Catalog No. 8NT1) (human); assay: sandwich CMIA, capture 15C4, analyte 43.3 pM
[34] = target: human pro B-type natriuretic peptide (HyTest, Turku, Finland; Catalog No. 8PRO8) (human); assay: sandwich CMIA, capture 15C4, analyte 43.3 pM
[35] = target: glycosylated human proBNP (HyTest, Turku, Finland; Catalog No. 8GOB2) (human); assay: sandwich CMIA, capture 15C4, analyte 86.6 pM
[36] = target: human NT-pro B-type natriuretic peptide (HyTest, Turku, Finland; Catalog No. 8NT1) (human); assay: sandwich CMIA, capture 15C4, analyte 86.6 pM
[37] = target: human pro B-type natriuretic peptide (HyTest, Turku, Finland; Catalog No. 8PRO8) (human); assay: sandwich CMIA, capture 15C4, analyte 86.6 pM
[38] = target: glycosylated human proBNP (HyTest, Turku, Finland; Catalog No. 8GOB2) (human); assay: sandwich CMIA, capture 15C4, 86.6 pM, against human NT-proBNP
[39] = target: human pro B-type natriuretic peptide (HyTest, Turku, Finland; Catalog No. 8PRO8) (human); assay: as above
[40] = target: human pro B-type natriuretic peptide (HyTest, Turku, Finland; Catalog No. 8PRO8) (human); assay: sandwich CMIA, 15C4 (63-71) with 18H5 (13-20), against human NT-proBNP

glycosylated human proBNP (HyTest, Turku, Finland; Catalog No. 8GOB2) (human), sequence (chain, as listed by the source): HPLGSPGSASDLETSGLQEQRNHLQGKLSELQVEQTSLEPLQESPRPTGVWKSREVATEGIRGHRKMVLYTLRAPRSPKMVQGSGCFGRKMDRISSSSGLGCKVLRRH
human NT-pro B-type natriuretic peptide (HyTest, Turku, Finland; Catalog No. 8NT1) (human), sequence (chain, as listed by the source): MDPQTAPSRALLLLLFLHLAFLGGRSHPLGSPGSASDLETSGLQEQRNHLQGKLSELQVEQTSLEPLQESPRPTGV

Row | Substance | Analyte rlus [1] [rlus] | Analyte rlus [2] [rlus] | Analyte rlus [4] [rlus] | Analyte rlus [5] [rlus] | Analyte rlus [6] [rlus] | % Cross-reactivity [8] [%] | % Cross-reactivity [9] [%] | Analyte rlus [10] [rlus] | Analyte rlus [11] [rlus] | Analyte rlus [12] [rlus] | Analyte rlus [13] [rlus] | Analyte rlus [14] [rlus] | Analyte rlus [15] [rlus] | Analyte rlus [16] [rlus] | Analyte rlus [17] [rlus] | Analyte rlus [18] [rlus] | Analyte rlus [19] [rlus] | Analyte rlus [20] [rlus] | Analyte rlus [21] [rlus] | Analyte rlus [22] [rlus] | other results
1 | anti-human NT-proBNP/anti-human proBNP labeled monoclonal antibody 13G12 (HyTest, Turku, Finland) | 967 | 131000 | 1240 | 309000 | 37200 | 0.1 | 11.8 | 841 | 841 | 841 | 798 | 777 | 800 | 831 | 820 | 920 | 892 | 892 | 892 | 778 | Analyte rlus [3]: 16700 rlus; % Cross-reactivity [7]: 10%; Analyte rlus [23]: 805 rlus; Analyte rlus [24]: 1080 rlus; % Cross-reactivity [25]: 0.1%; % Cross-reactivity [26]: 14.1%; % Cross-reactivity [27]: 0.1%; % Cross-reactivity [28]: 12.1%; Analyte rlus [29]: 767 rlus; Analyte rlus [30]: 761 rlus; Analyte rlus [31]: 802 rlus; Analyte rlus [32]: 905 rlus; Analyte rlus [33]: 10300 rlus; Analyte rlus [34]: 2220 rlus; Analyte rlus [35]: 912 rlus; Analyte rlus [36]: 25600 rlus; Analyte rlus [37]: 4080 rlus; % Cross-reactivity [38]: 0.1%; % Cross-reactivity [39]: 12.9%
2 | anti-human NT-proBNP/anti-human proBNP labeled monoclonal antibody 18H5 (HyTest, Turku, Finland) | 1230 | 162000 | 1580 | 337000 | 46500 | 0.3 | 13.6 | 626 | 626 | 626 | 618 | 621 | 628 | 663 | 708 | 949 | 704 | 704 | 704 | 754 | Analyte rlus [23]: 664 rlus; Analyte rlus [24]: 1440 rlus; % Cross-reactivity [25]: 0.3%; % Cross-reactivity [26]: 15.5%; % Cross-reactivity [27]: 0.3%; Analyte rlus [29]: 737 rlus; Analyte rlus [30]: 636 rlus; Analyte rlus [31]: 664 rlus; Analyte rlus [32]: 756 rlus; Analyte rlus [33]: 18000 rlus; Analyte rlus [34]: 3380 rlus; % Cross-reactivity [40]: 10%; Analyte rlus [35]: 783 rlus; Analyte rlus [36]: 39100 rlus; Analyte rlus [37]: 6590 rlus; % Cross-reactivity [38]: 0.2%; % Cross-reactivity [39]: 15.3%
